Reference: the supplement of paper PMC10567573

B1: EIF5 (parent)
chain: KQTIGNSCKACGYRGMLDTHHKLC
B2: TFE3 (parent)
chain: FPSDHLGDLGDPFHLGLEDILMEE

Variants of: B1
Assay: protein stability index of a GFP-peptide fusion (GPS, HEK-293T) (PSI 1-6); higher = more stable
Settings: c terminus: a fixed tail appended
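Also: lentivirally expressed fusions sorted by FACS into six bins by GFP to DsRed ratio, PSI derived from sequencing read proportions per bin multiplied by bin number.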

Protein stability index: each site, then its substitutions
C11: Y 2.4
G15: D 2.94, Y 2.59, T 2.27, P 2.93, N 2.45, L 2.44, M 1.84, K 2.11, I 2.26, E 2.24, C 2.44, Q 2.12, W 1.52, A 1.78, R 2.72, V 2.12, H 3.1, S 2.12, F 2.24
K22: R 2.34, T 2.99, Q 2.76, P 3.79, F 2.46, M 3.09, C 4.4, I 2.37, D 3.72, A 2.77, S 2.79, E 2.96, L 2.65, G 2.52, N 2.93, Y 2.73, H 3.37, W 2.17, V 2.77
L17: Q 3.85, T 3.91, D 4.68, P 3.88, Y 3.1, E 3.98, N 3.65, C 4.42, G 3.77, K 3.44, M 2.96, I 3.33, V 2.6, R 3.44, S 4.24, F 2.55, H 3.63, W 2.31, A 3.66
G12: N 2.25, D 2.13, F 1.73, H 2.36, I 2.29, L 1.92, C 2.56, S 1.52, W 1.78, Q 2.54, E 2.93, Y 2.14, R 2.66, A 1.37, V 1.62, M 2.76, K 3.06, P 1.84, T 2.5
D18: L 2.38, I 2.24, A 2.85, W 1.99, N 2.88, Q 2.29, Y 2.09, G 2.81, C 3.19, M 2.56, P 2.71, V 2.39, E 3.35, K 2.46, T 2.96, R 2.65, S 3.22, H 3.07, F 2.08
C24: V 2.35, Y 1.7, G 1.63, A 1.99, I 2.07, N 1.91, H 1.9, W 2.21, T 1.57, L 1.92, S 1.89, E 2.11, D 2.25, K 2.15, P 1.81, F 2.24, Q 2.22, R 1.38, M 2.81
L23: G 3.93, Q 3.82, C 4.27, N 3.83, A 3.89, F 3.64, M 3.42, E 4.2, W 3.91, H 4.67, R 3.4, V 4.26, T 4.03, K 3.36, P 3.28, S 4.18, Y 3.89, D 4.67, I 2.86
Y13: H 2.77, C 3.61, F 3.21, N 3.46, K 3.97, D 3.03, E 3.75, P 2, T 3.19, M 3.32, Q 3.29, L 2.94, G 2.75, S 3.37, W 2.45, A 3.7, I 2.16, V 2.91, R 3.24
R14: M 2.97, C 4.75, Y 2.64, S 3.51, F 3.14, A 2.93, L 2.96, E 3.1, G 3.29, W 2.12, P 3.69, H 3.42, K 3.89, Q 3.35, V 3.15, D 3.41, N 3.04, I 3.33, T 3.52
T19: C 3.45, Q 3.03, W 1.87, L 2.29, K 3.44, S 3.1, D 4.48, H 3.43, I 2.68, P 2.81, A 3.29, N 3.81, Y 2.71, M 3.03, F 2.17, G 4.05, E 3.62, V 2.49, R 2.79
M16: F 2.58, E 4.14, D 4.72, W 2.62, P 4.45, G 3.91, I 3.07, R 3.29, H 4.16, V 3.27, A 3.94, Q 3.9, T 4.14, S 3.8, N 3.63, L 3.51, K 4.35, C 3.75, Y 2.98
H20: P 2.47, C 2.75, F 2.07, Y 2.09, G 2.56, I 2.12, Q 2.5, W 2.48, E 3.24, A 2.24, L 2.24, M 1.23, R 2.28, D 3.64, V 2.15, T 1.98, K 2.61, S 3.17, N 2.92
H21: L 2.77, C 3.17, V 3.29, A 2.7, I 2.88, S 2.9, T 3.17, W 2.45, R 3, Q 2.51, F 2.35, D 3.75, E 3.21, N 3.25, G 3.17, M 2.89, P 3.17, Y 3.32, K 3.02

Variants of: B2
Assay: as above
Settings: c terminus: a fixed tail appended

Protein stability index: each site, then its substitutions
F1: C 5.03, L 4.55, P 5.13, E 4.96, W 4.36, H 4.7, A 5.42, T 4.74, Q 4.57, Y 3.3, V 4.88, I 4.61, R 4.64, M 4.82, S 5.1, G 5.12, N 4.91, K 4.41, D 4.84
D4: H 1.91, V 2.59, I 2.76, A 2.26, S 2.51, G 2.49, L 2.37, P 3.11, C 2.33, W 1.7, E 3.77, T 2.35, N 3.22, F 2.75, Q 3.03, R 2.04, M 2.77, Y 2.75, K 1.87
S3: E 3.97, R 2.6, F 2.29, H 2.91, A 2.85, M 2.59, G 2.97, V 2.56, T 2.9, I 3.02, N 3.16, Q 3.57, C 2.46, D 4.07, L 3.04, W 2.2, P 3.79, K 2.67, Y 2.45
P2: A 2.62, E 4.51, Y 3, G 3.62, T 2.74, V 1.5, R 3.52, S 3.96, D 3.95, N 4.24, H 1.84, L 3.37, K 3.97, W 2.04, Q 2.63, M 3.25, C 2.57, F 2.83, I 2.12
H5: L 3.3, M 3.33, A 4.06, E 4.15, F 3.28, G 3.36, K 2.83, C 3.73, D 4.42, I 3.08
